Results on seven molecules are retold here after paper PMC5076566 (Cell, 2016).

Data set [1] concerns the molecule itself. Briefly: polymerisation and hydrogel formation.
The target of data set [2] is T1, His-3xFlag tagged D290V hnRNPA2 LCS (181-341 aa) (human, UniProt P22626-2 181-341, D290V).
T1 sequence (looked up): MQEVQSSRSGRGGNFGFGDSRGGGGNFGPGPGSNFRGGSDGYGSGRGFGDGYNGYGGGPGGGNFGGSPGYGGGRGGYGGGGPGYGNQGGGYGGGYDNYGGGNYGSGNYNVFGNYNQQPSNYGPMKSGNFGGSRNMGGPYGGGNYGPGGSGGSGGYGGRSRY
Briefly: co-IP.

Data set [3] addresses GFP:hnRNPA1 ΔRRM (186-320), the C-terminal LC domain (human, UniProt P09651-2 186-320). Briefly: co-IP.
The target of data set [4] is GFP:hnRNPA1 full length (residue 2-320) (human, UniProt P09651-2 2-320). Briefly: co-IP.
Data set [5] has as its target Recombinant human vimentin, full length (2-466 AA), assembled into intermediate filaments (human, UniProt P08670 2-466). Briefly: transmission electron microscopy of filaments mixed with test protein.

B1: mCherry:neurofilament heavy isoform head domain (3-100) (domain or fragment, human, UniProt P12036 3-100, looked up)
chain: SFGGADALLGAPFAPLHGGGSLHYALARKGGAGGTRSAAGSSSGFHSWTRTSVSSVSASPSRFRGAGAASSTDSLDTLSNGPEGCMVAVATSRSEKEQ
Take B1: in data set [1], the binding result is on record as “binds”.

B2: mCherry:neurofilament light isoform head domain (2-100) (domain or fragment, human, UniProt P07196 2-100, looked up)
chain: SSFSYEPYYSTSYKRRYVETPRVHISSVRSGYSTARSAYSSYSAPVSSSLSVRRSYSSSSGSLMPSLENLDLSQVAAISNDLKSIRTQEKAQLQDLNDR
B2: the binding result in data set [1] is “binds”.

B3: mCherry:peripherin head domain (2-99) (domain or fragment, human, UniProt P41219 2-99, looked up)
chain: SHHPSGLRAGFSSTSYRRTFGPPPSLSPGAFSYSSSSRFSSSRLLGSASPSSSVRLGSFRSPRAGAGALLRLPSERLDFSMAEALNQEFLATRSNEKQ
As to B3, in data set [1], the binding result is recorded as “binds”.

B4: mCherry:vimentin head domain (2-95) (domain or fragment, human, UniProt P08670 2-95, looked up)
chain: STRSVSSSSYRRMFGGPGTASRPSSSRSYVTTSTRTYSLGSALRPSTSRSLYASSPGGVYATRSSAVRLRSSVPGVRLLQDSVDFSLADAINTE
As for B4, in data set [1], the binding result is “binds”.

B5: PR20HA peptide (20 repeats of PR with an HA epitope tag at the C-terminus) (peptide)
peptide: PRPRPRPRPRPRPRPRPRPRPRPRPRPRPRPRPRPRPRPR
As to B5, the binding result in data set [2], in data set [3] and in data set [4] was “binds” throughout.

B6: GFP:FUS LC domain (residue 2-214) (domain or fragment, UniProt P35637 2-214, looked up)
chain: ASNDYTQQATQSYGAYPTQPGQGYSQQSSQPYGQQSYSGYSQSTDTSGYGQSSYSSYGQSQNTGYGTQSTPQGYGSTGGYGSSQSSQSSYGQQSSYPGYGQQPAPSSTSGSYGSSSQSSSYGQPQSGSYSQQPSYGGQQQSYGQQQSYNPPQGYGQQNQYNSSSGGGGGGGGGGNYGQDQSSMSSGGGSGGGYGNQDQSGGGGSGGYGQQDRG
For the molecule B6, the binding result in data set [5] is on record as “binds”.

B7: mCherry:neurofilament medium isoform head domain (2-104) (domain or fragment, human, UniProt P07197 2-104, looked up)
chain: SYTLDSLGNPSAYRRVTETRSSFSRVSGSPSSGFRSQSWSRGSPSTVSSSYKRSMLAPRLAYSSAMLSSAESSLDFSQSSSLLNGGSGPGGDYKLSRSNEKEQ
Turning to B7, the binding result in data set [1] is listed as “binds”.
